Molecular target: tyrosinase protein of murine B16 melanoma tumors and melan-A murine melanocytes (murine) (UniProt P11344)
Assay: cell-based or functional assay

UniProt P11344, sequence (P11344 19-533 limits assumed): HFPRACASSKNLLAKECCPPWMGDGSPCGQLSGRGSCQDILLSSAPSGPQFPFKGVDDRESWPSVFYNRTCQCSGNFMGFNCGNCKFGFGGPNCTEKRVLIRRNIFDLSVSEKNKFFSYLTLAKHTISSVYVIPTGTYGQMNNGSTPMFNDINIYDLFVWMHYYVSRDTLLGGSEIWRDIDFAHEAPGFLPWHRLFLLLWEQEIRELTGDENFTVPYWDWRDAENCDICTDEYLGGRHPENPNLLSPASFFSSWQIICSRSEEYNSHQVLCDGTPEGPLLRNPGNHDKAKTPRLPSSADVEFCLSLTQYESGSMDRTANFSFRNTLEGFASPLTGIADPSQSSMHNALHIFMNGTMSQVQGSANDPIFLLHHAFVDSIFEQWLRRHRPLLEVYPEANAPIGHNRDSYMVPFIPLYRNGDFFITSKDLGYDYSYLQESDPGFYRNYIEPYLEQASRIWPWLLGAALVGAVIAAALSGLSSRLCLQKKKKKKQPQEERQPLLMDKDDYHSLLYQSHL

- decrease in color development with L-DOPA (tyrosinase activity in frozen sections of B16-V tumors): 25 to 50%
Substance: epitope-tagged recombinant human (rh) ZAG (zinc alpha-2-glycoprotein) with myc and 6-His 3' epitope tags (from UniProt P25311 21-298)

Reference: patent US7803750
